According to patent US20220118089A1 (UNIVERSITY OF CHICAGO, published 2022):

T1: human type III collagen (Millipore Sigma) (human, UniProt P02461 154-1221)
T1 construct: treated as one molecule; also called collagen type III; collagen III
T1 sequence (looked up): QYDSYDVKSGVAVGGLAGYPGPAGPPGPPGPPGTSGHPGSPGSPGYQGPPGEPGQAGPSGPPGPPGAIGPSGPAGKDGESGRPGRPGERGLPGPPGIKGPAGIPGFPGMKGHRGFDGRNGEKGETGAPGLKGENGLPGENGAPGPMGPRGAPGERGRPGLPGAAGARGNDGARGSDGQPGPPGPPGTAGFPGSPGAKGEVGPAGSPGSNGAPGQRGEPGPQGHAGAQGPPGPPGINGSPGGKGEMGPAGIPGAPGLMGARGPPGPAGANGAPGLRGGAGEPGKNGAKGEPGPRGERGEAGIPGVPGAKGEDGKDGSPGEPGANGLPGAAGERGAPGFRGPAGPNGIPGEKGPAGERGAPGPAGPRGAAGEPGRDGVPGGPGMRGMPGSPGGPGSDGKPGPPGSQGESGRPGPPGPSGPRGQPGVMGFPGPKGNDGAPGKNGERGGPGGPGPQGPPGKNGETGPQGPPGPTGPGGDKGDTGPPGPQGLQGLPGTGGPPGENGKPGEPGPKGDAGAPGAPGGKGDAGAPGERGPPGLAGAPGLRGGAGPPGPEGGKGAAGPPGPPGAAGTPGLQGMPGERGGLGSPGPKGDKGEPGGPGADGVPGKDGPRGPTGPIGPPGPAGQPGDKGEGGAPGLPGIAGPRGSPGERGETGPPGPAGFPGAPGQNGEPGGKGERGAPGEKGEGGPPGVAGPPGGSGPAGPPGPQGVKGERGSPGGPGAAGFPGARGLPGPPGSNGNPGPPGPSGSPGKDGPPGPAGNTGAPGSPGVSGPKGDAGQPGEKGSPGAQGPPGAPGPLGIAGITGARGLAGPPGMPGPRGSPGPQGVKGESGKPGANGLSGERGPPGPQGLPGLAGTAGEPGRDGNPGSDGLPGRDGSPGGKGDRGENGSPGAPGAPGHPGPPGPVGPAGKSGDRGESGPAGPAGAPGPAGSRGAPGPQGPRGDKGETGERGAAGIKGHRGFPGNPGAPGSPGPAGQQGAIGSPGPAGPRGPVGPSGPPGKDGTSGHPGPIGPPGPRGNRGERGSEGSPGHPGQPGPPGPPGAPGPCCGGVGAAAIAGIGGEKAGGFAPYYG

T2: recombinant mouse FcRn (Acro Biosystems) (mouse, UniProt Q61559 22-297; P01887 21-119)
T2 construct: also called neonatal Fc receptor; murine FcRn recombinant protein
T2 sequence (looked up) 1: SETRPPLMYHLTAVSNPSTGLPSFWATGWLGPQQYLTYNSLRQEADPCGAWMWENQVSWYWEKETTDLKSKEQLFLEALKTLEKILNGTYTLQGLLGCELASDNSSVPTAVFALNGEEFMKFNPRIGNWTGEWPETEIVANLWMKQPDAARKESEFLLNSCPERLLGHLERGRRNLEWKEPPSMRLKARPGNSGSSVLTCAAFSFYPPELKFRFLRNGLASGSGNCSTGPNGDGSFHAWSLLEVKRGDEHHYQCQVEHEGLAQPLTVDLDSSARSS
T2 sequence (looked up) 2: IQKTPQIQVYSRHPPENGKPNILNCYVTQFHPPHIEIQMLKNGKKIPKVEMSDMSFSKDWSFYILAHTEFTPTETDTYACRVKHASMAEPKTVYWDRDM


Key:
[1] = target: recombinant mouse IL-4Ra protein (R&D Systems) (mouse) (UniProt P16382); test: ELISA on plates coated with recombinant mouse IL-4Ra (10 µg/mL), 0-740 nM A3-IL4, detected with an antibody against mouse IL-4, A450; Kd from the fitted curve [B]
Sequence of recombinant mouse IL-4Ra protein (R&D Systems) (mouse) (P16382 26-233 limits assumed): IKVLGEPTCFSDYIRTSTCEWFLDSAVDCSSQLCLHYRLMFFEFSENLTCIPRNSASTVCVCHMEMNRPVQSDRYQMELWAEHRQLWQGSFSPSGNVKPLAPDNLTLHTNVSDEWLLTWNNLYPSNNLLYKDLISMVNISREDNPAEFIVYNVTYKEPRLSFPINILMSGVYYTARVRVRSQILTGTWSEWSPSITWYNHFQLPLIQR

[2] = target: human type III collagen (Millipore Sigma) (human) (UniProt P02461); test: ELISA on plates coated with collagen III, 0-740 nM A3-IL4
[3] = target: T1, human type III collagen (Millipore …); test: SPR (Biacore X100), human type III collagen immobilised by amine coupling, CBD-SA-IL-10 flowed, 1:1 Langmuir fit
Experimental: (§1) SPR measurements were carried out with Biacore X100 instrument. In collagen binding experiments, recombinant human type I or type III collagen (Millipore Sigma) were immobilized on a CMS sensor chip by standard amine coupling method (˜1500 resonance units (RUs)) and blocked with ethanolamine. […] In FcRn binding experiments, recombinant mouse FcRn (Acro Biosystems) was immobilized via amine coupling on a C1 chip (GE Healthcare) for ˜200 RU according to the manufacturer's instructions. […] The sensor chip was regenerated with PBS, pH 7.4 for every cycle.

[4] = target: T3, human type I collagen (Millipore Sigma) (human, UniProt P02452 162-1218; P08123 80-1119); test: SPR (Biacore X100), human type I collagen immobilised by amine coupling, CBD-SA-IL-10 flowed, 1:1 Langmuir fit
T3 construct: treated as one molecule; also called collagen type I
T3 sequence (P02452 162-1218, chain 1 of 2): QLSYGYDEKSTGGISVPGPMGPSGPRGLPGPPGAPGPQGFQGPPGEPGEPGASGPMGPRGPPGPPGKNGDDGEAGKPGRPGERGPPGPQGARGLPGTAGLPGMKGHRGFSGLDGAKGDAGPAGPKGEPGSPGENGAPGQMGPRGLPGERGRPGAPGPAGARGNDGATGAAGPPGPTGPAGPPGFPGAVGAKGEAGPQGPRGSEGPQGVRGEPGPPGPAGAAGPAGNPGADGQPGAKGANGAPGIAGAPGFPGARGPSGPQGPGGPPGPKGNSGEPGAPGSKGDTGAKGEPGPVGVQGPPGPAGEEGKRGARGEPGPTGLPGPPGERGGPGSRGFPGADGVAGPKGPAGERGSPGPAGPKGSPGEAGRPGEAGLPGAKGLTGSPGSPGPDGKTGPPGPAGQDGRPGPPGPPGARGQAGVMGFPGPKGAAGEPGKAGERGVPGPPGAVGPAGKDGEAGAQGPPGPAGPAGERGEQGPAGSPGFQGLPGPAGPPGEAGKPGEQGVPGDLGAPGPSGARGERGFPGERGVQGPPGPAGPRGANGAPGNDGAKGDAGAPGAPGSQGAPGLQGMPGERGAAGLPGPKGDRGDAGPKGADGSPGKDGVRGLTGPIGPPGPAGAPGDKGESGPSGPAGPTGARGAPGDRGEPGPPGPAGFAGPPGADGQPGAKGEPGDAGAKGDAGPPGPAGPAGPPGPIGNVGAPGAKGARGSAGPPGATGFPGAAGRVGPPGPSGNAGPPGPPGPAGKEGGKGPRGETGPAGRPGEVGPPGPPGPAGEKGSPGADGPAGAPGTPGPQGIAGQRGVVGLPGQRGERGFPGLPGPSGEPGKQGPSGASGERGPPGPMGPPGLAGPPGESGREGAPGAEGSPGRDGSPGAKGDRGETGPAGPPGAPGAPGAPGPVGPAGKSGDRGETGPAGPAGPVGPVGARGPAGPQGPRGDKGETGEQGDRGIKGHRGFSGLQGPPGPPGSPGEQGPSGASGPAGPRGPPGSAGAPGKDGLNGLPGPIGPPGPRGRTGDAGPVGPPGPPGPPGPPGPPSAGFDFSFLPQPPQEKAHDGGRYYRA
T3 sequence (P08123 80-1119, chain 2 of 2): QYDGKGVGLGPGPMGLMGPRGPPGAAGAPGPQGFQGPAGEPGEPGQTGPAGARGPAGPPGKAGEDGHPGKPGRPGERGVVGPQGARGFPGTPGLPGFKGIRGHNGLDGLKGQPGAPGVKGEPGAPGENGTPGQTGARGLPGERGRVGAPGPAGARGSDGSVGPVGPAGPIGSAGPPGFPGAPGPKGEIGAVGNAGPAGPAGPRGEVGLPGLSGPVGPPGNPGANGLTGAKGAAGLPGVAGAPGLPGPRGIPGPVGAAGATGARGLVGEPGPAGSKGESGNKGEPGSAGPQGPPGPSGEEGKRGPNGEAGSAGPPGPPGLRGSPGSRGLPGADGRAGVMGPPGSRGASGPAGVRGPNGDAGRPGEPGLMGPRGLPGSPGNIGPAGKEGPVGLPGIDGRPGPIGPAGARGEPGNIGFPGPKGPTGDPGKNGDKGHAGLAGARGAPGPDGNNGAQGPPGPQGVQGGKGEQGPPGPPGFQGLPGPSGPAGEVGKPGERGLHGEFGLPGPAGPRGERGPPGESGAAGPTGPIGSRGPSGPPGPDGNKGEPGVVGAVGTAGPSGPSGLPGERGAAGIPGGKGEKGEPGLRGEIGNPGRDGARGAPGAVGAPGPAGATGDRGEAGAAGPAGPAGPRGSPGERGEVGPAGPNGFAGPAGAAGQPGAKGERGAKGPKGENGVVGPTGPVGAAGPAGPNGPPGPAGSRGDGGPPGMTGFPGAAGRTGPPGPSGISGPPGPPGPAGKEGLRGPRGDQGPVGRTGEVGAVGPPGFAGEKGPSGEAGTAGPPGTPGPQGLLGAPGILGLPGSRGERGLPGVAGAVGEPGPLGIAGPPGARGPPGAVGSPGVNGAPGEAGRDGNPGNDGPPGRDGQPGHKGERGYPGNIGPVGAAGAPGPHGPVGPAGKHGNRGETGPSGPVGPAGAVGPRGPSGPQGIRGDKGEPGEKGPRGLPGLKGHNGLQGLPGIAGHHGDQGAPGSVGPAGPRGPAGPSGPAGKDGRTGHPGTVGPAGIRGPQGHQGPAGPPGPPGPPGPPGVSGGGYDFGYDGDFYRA
Experimental: as §1

[5] = target: T2, recombinant mouse FcRn (Acro Biosystems); test: SPR (Biacore X100), mouse FcRn immobilised on a C1 chip, CBD-SA-IL-10 flowed at pH 5.8, 1:1 Langmuir fit
Experimental: as §1

Kd [1] [nM]	Kd [2] [nM]	Kd [3] [nM]	koff [3] [s⁻¹]	Kd [4] [nM]	koff [4] [s⁻¹]	Kd [5] [nM]	koff [5] [s⁻¹]	kon [5] [M⁻¹ s⁻¹]	Molecule
100	28.6	–	–	–	–	–	–	–	vWF A3 domain-fused IL-4 (human vWF A3 domain and mouse IL-4 fusion protein)
–	–	8	0.0026	12.4	0.0034	1600	0.0084	5210	Human VWF A3 domain (CBD), mouse serum albumin and mouse IL-10 fusion protein (other, also called CBD-SA-IL-10; CBD-SA-fused IL-10) CSQPLDVVLLLDGSSSLPESSFDKMKSFAKAFISKANIGPHLTQVSVIQYGSINTIDVPWNVVQEKAHLQSLVDLMQQEGGPSQIGDALAFAVRYVTSQIHGARPGASKAVVIIIMDTSLDPVDTAADAARSNRVAVFPVGVGDRYDEAQLRILAGPGASSNVVKLQQVEDLSTMATLGNSFFHKLCSGFSGVGGGSGGGSEAHKSEIAHRYNDLGEQHFKGLVLIAFSQYLQKCSYDEHAKLVQEVTDFAKTCVADESAANCDKSLHTLFGDKLCAIPNLRENYGELADCCTKQEPERNECFLQHKDDNPSLPPFERPEAEAMCTSFKENPTTFMGHYLHEVARRHPYFYAPELLYYAEQYNEILTQCCAEADKESCLTPKLDGVKEKALVSSVRQRMKCSSMQKFGERAFKAWAVARLSQTFPNADFAEITKLATDLTKVNKECCHGDLLECADDRAELAKYMCENQATISSKLQTCCDKPLLKKAHCLSEVEHDTMPADLPAIAADFVEDQEVCKNYAEAKDVFLGTFLYEYSRRHPDYSVSLLLRLAKKYEATLEKCCAEANPPACYGTVLAEFQPLVEEPKNLVKTNCDLYEKLGEYGFQNAILVRYTQKAPQVSTPTLVEAARNLGRVGTKCCTLPEDQRLPCVEDYLSAILNRVCLLHEKTPVSEHVTKCCSGSLVERRPCFSALTVDETYVPKEFKAETFTFHSDICTLPEKEKQIKKQTALAELVKHKPKATAEQLKTVMDDFAQFLDTCCKAADKDTCFSTEGPNLVTRCKDALAGGGSGGGSSRGQYSREDNNCTHFPVGQSHMLLELRTAFSQVKTFFQTKDQLDNILLTDSLMQDFKGYLGCQALSEMIQFYLVEVMPQAEKHGPEIKEHLNSLGEKLKTLRMRLRRCHRFLPCENKSKAVEQVKSDFNKLQDQGVYKAMNEFDIFINCIEAYMMIKMKSHHHHHH
